Measured values taken from paper PMC3604701.
pKd: −log10 of the molar value. Like-named read-outs stand apart in the source and are kept apart here.

Experiments:
[1] = target: LSD1 (residues 151–852), lysine-specific demethylase 1 (human) (UniProt O60341); experiment: ITC
[2] = target: LSD1 (residues 151–852), lysine-specific demethylase 1 (human) (UniProt O60341); experiment: ITC; remark: listed apart in the source
[3] = target: LSD1 (residues 151–852), lysine-specific demethylase 1 (human) (UniProt O60341); experiment: ITC; remark: listed apart in the source
[4] = target: LSD1 (residues 151–852), lysine-specific demethylase 1 (human) (UniProt O60341); experiment: ITC; remark: listed apart in the source
[5] = target: LSD1 (residues 151–852), lysine-specific demethylase 1 (human) (UniProt O60341); experiment: ITC; remark: listed apart in the source
[6] = target: LSD1 (residues 151–852), lysine-specific demethylase 1 (human) (UniProt O60341); experiment: ITC; remark: listed apart in the source
[7] = target: LSD1 (residues 151–852), lysine-specific demethylase 1 (human) (UniProt O60341); experiment: ITC; remark: listed apart in the source
[8] = target: LSD1 (residues 151–852), lysine-specific demethylase 1 (human) (UniProt O60341); experiment: ITC; remark: listed apart in the source
[9] = target: LSD1 (residues 151–852), lysine-specific demethylase 1 (human) (UniProt O60341); experiment: ITC; remark: listed apart in the source
[10] = target: LSD1 (residues 151–852), lysine-specific demethylase 1 (human) (UniProt O60341); experiment: ITC; remark: listed apart in the source
[11] = target: LSD1 (residues 151–852), lysine-specific demethylase 1 (human) (UniProt O60341); experiment: ITC; remark: listed apart in the source
[12] = target: LSD1 (residues 151–852), lysine-specific demethylase 1 (human) (UniProt O60341); experiment: ITC; remark: listed apart in the source
[13] = target: LSD1 (residues 151–852), lysine-specific demethylase 1 (human) (UniProt O60341); experiment: ITC; remark: listed apart in the source
[14] = target: CoREST (RCOR1) residues 286-482 (linker region + SANT2 domain) (UniProt Q9UKL0); experiment: ITC; details: pH 7.4, no added salt, not stated numerically, 50 mM sodium phosphate
Sequence of UniProt Q9UKL0 (Q9UKL0 whole entry, the tested form may be a part): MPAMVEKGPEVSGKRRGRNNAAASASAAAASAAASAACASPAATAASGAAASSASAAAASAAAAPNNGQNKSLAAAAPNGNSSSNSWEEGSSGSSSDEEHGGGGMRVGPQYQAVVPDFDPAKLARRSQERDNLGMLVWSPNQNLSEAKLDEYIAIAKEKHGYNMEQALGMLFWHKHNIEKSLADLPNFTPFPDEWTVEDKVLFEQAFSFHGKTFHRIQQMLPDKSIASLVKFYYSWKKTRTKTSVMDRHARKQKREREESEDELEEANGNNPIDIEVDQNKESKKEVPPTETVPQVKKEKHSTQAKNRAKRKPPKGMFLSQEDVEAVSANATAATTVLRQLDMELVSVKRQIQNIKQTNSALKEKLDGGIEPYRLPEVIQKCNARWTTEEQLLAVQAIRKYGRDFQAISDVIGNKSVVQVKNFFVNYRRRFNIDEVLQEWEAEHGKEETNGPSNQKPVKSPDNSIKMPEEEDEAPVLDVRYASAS

[15] = target: CoREST (RCOR1) residues 286-482 (linker region + SANT2 domain) (UniProt Q9UKL0); experiment: ITC; details: pH 7.4; 25 °C; no added salt; not stated numerically; 50 mM sodium phosphate
[16] = target: CoREST (RCOR1) residues 286-482 (linker region + SANT2 domain) (UniProt Q9UKL0); experiment: SPR; details: pH 7.4; no added salt; not stated numerically; 50 mM sodium phosphate
[17] = target: CoREST (RCOR1) residues 286-482 (linker region + SANT2 domain) (UniProt Q9UKL0); experiment: ITC; details: pH 7.4, 25 °C, no added salt, not stated numerically

linker region^293–380 of CoREST (domain or fragment)
pKd [1]: 8.11
dH [1]: -13.5 kcal/mol
stoichiometry N [1]: 0.96

CoREST^286–482 (linker region and SANT2 domain) (domain or fragment)
pKd [2]: 8.23
dH (ΔHcal) [2]: -17.4 kcal/mol
stoichiometry N [2]: 0.91
pKd [3]: 8.17
dH [3]: -12.9 kcal/mol
stoichiometry N [3]: 1
pKd [4]: 8.07
dH (ΔHcal) [4]: -10.9 kcal/mol
stoichiometry N [4]: 0.92
Ka [1]: 6.29e+07 M⁻¹
pKd [1]: 7.80
dH [1]: -21.3 kcal/mol
stoichiometry N [1]: 1.14
pKd [5]: 8.38
dH [5]: -8.56 kcal/mol
stoichiometry N [5]: 0.9
pKd [6]: 8.50
dH [6]: -12.1 kcal/mol
stoichiometry N [6]: 1.01
pKd [7]: 8.10
dH [7]: -20.2 kcal/mol
stoichiometry N [7]: 0.97
pKd [8]: 7.67
dH (ΔHcal) [8]: -12.6 kcal/mol
stoichiometry N [8]: 0.93
pKd [9]: 7.76
dH (ΔHcal) [9]: -19.5 kcal/mol
stoichiometry N [9]: 1.11
pKd [10]: 8.43
dH [10]: -16.1 kcal/mol
stoichiometry N [10]: 1.03
pKd [11]: 7.66
dH [11]: -4.24 kcal/mol
stoichiometry N [11]: 0.99
pKd [12]: 8.12
dH [12]: -15.6 kcal/mol
stoichiometry N [12]: 1
pKd [13]: 7.93
dH (ΔHcal) [13]: -15.2 kcal/mol
stoichiometry N [13]: 1.01

LSD1 (KDM1A, lysine-specific histone demethylase 1) residues 151-852
ΔG ([14]; 15 °C): -10.1 kcal/mol
Ka ([14]; 25 °C): 6.29e+07 M⁻¹
ΔG ([14]; 25 °C): -10.6 kcal/mol
ΔH ([14]; 25 °C): -21.3 kcal/mol
ΔG ([14]; 30 °C): -11.7 kcal/mol
ΔG ([14]; 35 °C): -11.4 kcal/mol
ΔG [15]: -11.6 kcal/mol
ΔH [15]: -12.1 kcal/mol
koff [16]: 7.78e-05 s⁻¹
kon [16]: 56300 M⁻¹ s⁻¹
ΔG ([17]; 50 mM ACES): -10.1 kcal/mol
ΔHcal ([17]; 50 mM ACES): -12.6 kcal/mol
ΔG ([17]; 50 mM HEPES): -10.9 kcal/mol
ΔHcal ([17]; 50 mM HEPES): -15.2 kcal/mol
ΔG ([17]; 50 mM PIPES): -11.2 kcal/mol
ΔHcal ([17]; 50 mM PIPES): -17.4 kcal/mol
ΔG ([17]; 50 mM Tris): -10.8 kcal/mol
ΔHcal ([17]; 50 mM Tris): -10.9 kcal/mol
ΔG ([17]; 50 mM sodium phosphate): -10.6 kcal/mol
ΔHcal ([17]; 50 mM sodium phosphate): -19.5 kcal/mol
